T1: full-length human TIGIT expressed on cells (human, UniProt Q495A1 22-244)
T1 construct: whole, on cells; also called CHO-hTIGIT; YTS-hTIGIT
T1 sequence (looked up): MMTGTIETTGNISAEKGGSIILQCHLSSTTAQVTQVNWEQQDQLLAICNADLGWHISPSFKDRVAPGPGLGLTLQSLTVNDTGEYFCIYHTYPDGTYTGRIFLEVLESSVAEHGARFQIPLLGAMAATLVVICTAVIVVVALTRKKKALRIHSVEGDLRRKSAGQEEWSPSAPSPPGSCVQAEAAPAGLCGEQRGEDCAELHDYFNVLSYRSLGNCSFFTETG

T2: extracellular domain (ECD) of human TIGIT (human, UniProt Q495A1 22-141, biotinylated (site not stated))
T2 construct: extracellular domain; Used captured on streptavidin in ELISA and as analyte in SPR (extracellular domain); also called hTIGIT-ECD; hTIGIT-ECD-Biotin; not shown: expressed as a biotinylated recombinant fusion protein
T2 sequence (looked up): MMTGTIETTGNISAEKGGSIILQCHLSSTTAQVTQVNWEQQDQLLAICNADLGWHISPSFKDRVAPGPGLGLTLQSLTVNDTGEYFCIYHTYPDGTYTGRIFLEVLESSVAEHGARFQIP

T3: extracellular domain (ECD) of mouse TIGIT (mouse, UniProt P86176 29-148, biotinylated (site not stated))
T3 construct: extracellular domain; Used captured on streptavidin in ELISA and as analyte in SPR (extracellular domain); also called mTIGIT-ECD; mTIGIT-ECD-Biotin; not shown: expressed as a biotinylated recombinant fusion protein
T3 sequence (looked up): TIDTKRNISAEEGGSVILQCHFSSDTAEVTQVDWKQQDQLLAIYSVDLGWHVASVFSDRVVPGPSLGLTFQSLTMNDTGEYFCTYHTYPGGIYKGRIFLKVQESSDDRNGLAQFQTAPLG

T4: hTIGIT variant S78A (full length, on 293T cells) (human, UniProt Q495A1 22-244)
T4 construct: whole, on cells
T4 sequence (looked up): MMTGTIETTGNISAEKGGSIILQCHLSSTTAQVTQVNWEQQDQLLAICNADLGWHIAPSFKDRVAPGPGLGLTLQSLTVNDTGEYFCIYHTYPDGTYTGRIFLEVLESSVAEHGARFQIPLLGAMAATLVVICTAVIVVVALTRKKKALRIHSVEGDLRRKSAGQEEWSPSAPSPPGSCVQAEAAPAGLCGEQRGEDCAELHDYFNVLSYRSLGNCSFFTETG

T5: hTIGIT variant K82A (full length, on 293T cells) (human, UniProt Q495A1 22-244)
T5 construct: whole, on cells
T5 sequence (looked up): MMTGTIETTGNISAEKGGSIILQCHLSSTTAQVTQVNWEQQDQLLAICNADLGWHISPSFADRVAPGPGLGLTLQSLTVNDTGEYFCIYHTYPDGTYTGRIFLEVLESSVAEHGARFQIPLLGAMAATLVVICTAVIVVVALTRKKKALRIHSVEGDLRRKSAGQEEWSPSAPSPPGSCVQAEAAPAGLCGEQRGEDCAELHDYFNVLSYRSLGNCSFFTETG

T6: hTIGIT variant S80A (full length, on 293T cells) (human, UniProt Q495A1 22-244)
T6 construct: whole, on cells; also called 580A [sic]
T6 sequence (looked up): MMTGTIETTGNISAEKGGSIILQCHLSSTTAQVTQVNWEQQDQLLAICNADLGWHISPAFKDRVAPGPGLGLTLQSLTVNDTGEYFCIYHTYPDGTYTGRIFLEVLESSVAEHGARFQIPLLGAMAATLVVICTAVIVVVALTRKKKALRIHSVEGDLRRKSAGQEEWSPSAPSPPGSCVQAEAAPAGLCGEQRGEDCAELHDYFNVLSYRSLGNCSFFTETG


Tests used:
[1] = target: T1, full-length human TIGIT expressed on …; assay: FACS on CHO cells transiently expressing full-length hTIGIT, hIgG1 format
Experimental: (§1) For epitope mapping, chimeras of human TIGIT IgV domain and N-terminal IgV domain D1 of hCD155 were constructed by replacing residues in the extracellular regions of hTIGIT with the corresponding residues from hCD155 D 1. These chimera and variants were expressed by transient transfection of CHO or 293T cells, their cell surface expression levels were assessed by using a mAb GC33 recognizing the N-terminal tag fused to each of the chimera and variant or hCD155-hFc (4). The binding of testing Abs in human IgG1 (hIgG1) format or hCD155-hFc to these transfectants were detected by using goat anti-human IgG-FITC antibody (Thermo Fisher Scientific). The cells were then analyzed with FACS machine (BD Accuri™ C6).
By transfecting CHO cells with these hTIGIT/hCD155 chimeras or hTIGIT variants, and by subsequently analyzing T4, CS19ME3-23, and CS19ME3-30-N Abs binding to these CHO transfectant cells by FACS, it was identified that the FG Loop in the extracellular IgV domain of hTIGIT is critical for these Abs′ binding (FIG. 12B). […] Thus, by binding to the FG Loop, these three Abs block the binding of TIGIT to its ligand CD155. Due to the high amino acid sequence homology in this loop between hTIGIT and mTIGIT, these three Abs are able to cross-react with both of them.

[2] = target: T2, extracellular domain (ECD) of human …; assay: SPR (Biacore T200), multi-cycle kinetics, FIG. 11 (hTIGIT or mTIGIT)
[3] = target: T3, extracellular domain (ECD) of mouse …; assay: as above
[4] = target: T4, hTIGIT variant S78A (full length, on …); assay: FACS on 293T cells transiently expressing the variant
Experimental: as §1
(§2) To investigate the role of these residues in the binding of anti-TIGIT antibodies of the present disclosure to hTIGIT, three hTIGIT variants each having a single point mutation selected from S78A, […], and K82A were generated. By transfecting 293T cells with these hTIGIT variants and by subsequently analyzing CS19ME3-30-N Abs binding to these 293T transfectant cells by FACS, it was identified that none of the three residues in the extracellular IgV domain of hTIGIT is critical for these Abs′ binding (FIG. 12C).

[5] = target: T5, hTIGIT variant K82A (full length, on …); assay: as above
Experimental: as §1, §2

[6] = target: T6, hTIGIT variant S80A (full length, on …); assay: as above
Experimental: as §1, §2

[7] = target: T2, extracellular domain (ECD) of human …; assay: SPR (Biacore T200), multi-cycle kinetics
[8] = target: T3, extracellular domain (ECD) of mouse …; assay: SPR (Biacore T200), multi-cycle kinetics

| binding result [1] | binding result [2] | binding result [3] | binding result [4] | binding result [5] | binding result [6] | binding result [7] | binding result [8] | Binder |
| --- | --- | --- | --- | --- | --- | --- | --- | --- |
| binds | binds | binds | – | – | – | – | – | CS19ME3-23 (antibody, human IgG1, V domains shown, tested as human IgG1 (hIgG1); also called CS19ME3-23 Ab) VH: EVQLLESGGGLVQPGGSLRLSCAASGFTFSSYAMHWVRQAPGKGLEWVAVISYDGSNKYYADSVKGRFTISRDNSKNTLYLQMNSLRAEDTAVYYCATLEGGGRYYDFWSADYWGQGTLVTVSS VL: QSALTQPRSVSGSPGQSVTISCTGTSSDVGGYNFVSWYQQHPGKAPKLLIYAVSKRPSGVPDRFSGSKSGNTASLTISGLQAEDEADYYCSSYSSESTRVVFGGGTKLTVL |
| binds | binds | binds | binds | binds | binds | – | – | CS19ME3-30-N (antibody, human IgG1, V domains shown, tested as human IgG1 (hIgG1); also called CS19ME3-30-N Ab) VH: QVQLVESGGGVVQPGRSLRLSCAASGFTFSSYAMHWVRQAPGKGLEWVAVISYDGSNKYYADSVKGRFTISRDNSKNTLYLQMNSLRAEDTAVYYCATLEGGGRYYDFWSADYWGQGTLVTVSS VL: QSALTQPRSVSGSPGQSVTISCTGTSSDVGGYNFVSWYQQHPGKAPKLLIYAVSNRPSGVPDRFSGSKSGNTASLTISGLQAEDEADYYCSSYSSESTRVVFGGGTKLTVL |
| – | – | – | – | – | – | binds | binds | T4M (antibody, V domains shown, T4 Vk with S50 and Y52 incorporated; IgG format captured by anti-hFc in SPR; also called T4M Ab) VH: QVQLQQWGAGLLKPSETLSLTCAVYGGSFNDYYWTWIRQAPGKGLEWIGEITHSGSADYNPSLKSRVTISVDTSKNQFSLKLRSVTAADTAVYYCARGLKLFRWKKTTVTTFPPYYYGMDVWGQGTTVTVSS VL: not shown |

— patent publication US20230272067A1 (HUAHUI HEALTH, published 2023)
